From US8304236B2, “Modified biotin-binding protein” (Japan Tobacco Inc., priority 2008, dated 2012)
“Also recorded” adds a separate entry of the source.

How the values were obtained:
[1] = Isoelectric focusing electrophoresis (pI observed); type: physicochemical; conditions: pH 3 to 10 gel
Protocol: The isoelectric point of each low-pI TM2 was measured by isoelectric focusing electrophoresis using an XCell SureLock Mini-Cell (Invitrogen). In accordance with the instruction, each low-pI TM2 (500 ng) and an IEF sample buffer (pH 3 to 10 (2×), Invitrogen) were mixed and were added to a polyacrylamide gel (pH 3 to 10, IEF Gel, Invitrogen) at a pH ranging from 3 to 10, followed by electrophoresis at a variable voltage of 100 V for 1 hour, 200 V for 1 hour, and 500 V for 45 minutes in this order.
After the electrophoresis, the gel was shaken in a blotting buffer (0.7% acetic acid) for 10 minutes and then was transferred onto a PVDF membrane at 10 V for 1 hour using an XCell ll Blot Module (Invitrogen). The PVDF membrane was subjected to reaction with anti-TM2 rabbit antibody (PCT/W2006/326260) serving as a primary antibody and with alkaline phosphate-labeled anti-rabbit IgG antibody (BIO-RAD) serving as a secondary antibody, followed by detection of bands with Alkaline Phosphatase Substrate Kit II
The isoelectric point of the high-affinity TM2 was measured by isoelectric focusing electrophoresis using an XCell SureLock Mini-Cell (Invitrogen). […] The electric point of TM2 D40N having replacement of the […] amino acid was higher than that of the wild type TM2 also in the isoelectric focusing electrophoresis.
The isoelectric point of HALU TM2 was measured by isoelectric focusing electrophoresis using an XCell SureLock Mini-Cell (Invitrogen). In accordance with the instruction, bands of each HALU TM2 (4 μg) were detected by CBB staining. […] The observed isoelectric point of TM2 D40N was 9.7, and was reduced to 8.9 after introduction of mutation of R104E and was reduced to 7.3 to 7.5 after further introduction of mutation of K141E.

human serum protein = assay: Non-specific adsorption of low-pI TM2 to human serum protein-immobilized magnetic beads; type: binding; conditions: for decrease of adsorption to human serum protein compared to the wild type TM2 / non-specific binding to human serum protein compared to TM2: FIG. 1; for non-specific binding and adsorption, % of that of the wild type TM2: summary of Example 1, paragraphs 1-9) and 1-11); for Non-specific binding of serum protein (%): wild type TM2 = 100
Protocol: In this embodiment, non-specific binding to human serum was investigated as non-specific adsorption of low-pI TM2 to serum protein-immobilized magnetic beads. Specifically, in order to investigate the non-specific binding of low-pI TM2, the amount of low-pI TM2 adsorbed to magnetic beads to which human serum protein was covalently bonded was measured. TM2 K26A, TM2 K73Q, TM2 R104E, TM2 K141E, and TM2 R104EK141E, which were highly expressed in Escherichia coli, were used as the low-pI TM2 to be investigated.
Human serum protein and magnetic beads were bound to each other as follows. Magnetic beads having surfaces coated with carboxyl groups (Dynabeads M-270 Carboxylic Acid, Dynal, 210 μL) were washed with 0.01 N sodium hydroxide (210 μL) for 10 minutes and then with ultrapure water (210 μL) for 10 minutes three times. To the washed magnetic beads, 1-ethyl-3-(3-dimethylaminopropyl)carbodiimide hydrochloride (EDC, PIERCE) dissolved in cooled ultrapure water was added into a final concentration of 0.2 M, and the mixture was shaken at room temperature for 30 minutes. Then, the magnetic beads were washed with cooled ultrapure water (210 μL) and then with 50 mM MES buffer (pH 5.0, 210 μL).
To the magnetic beads, 1 mg/mL human serum protein (CHEMICON, 210 μL) dialyzed with 50 mM MES buffer (pH 5.0) was added. The mixture was shaken at room temperature for 30 minutes to covalently bind the human serum protein to the magnetic beads. The magnetic beads were collected with a magnet to remove the supernatant. The unreacted active groups on the beads were eliminated with 50 mM tris buffer (pH 7.0, 210 μL), and then the magnetic beads were blocked with a PBS buffer (420 μL) containing 0.5% BSA and 0.1% Tween 20. The magnetic beads were suspended in a PBS buffer (210 μL) to obtain human serum protein-immobilized magnetic beads.
The magnetic beads (7 μL) and 0.56 μg/mL of each low-pI TM2 (100 μL) were mixed for reaction at room temperature for 1 hour. The magnetic beads were collected with a magnetic, and the supernatant was removed. After washing with 20 mM potassium phosphate buffer (500 μL) containing 500 mM sodium chloride, the magnetic beads were mixed with 20 μL of 2×SDS sample buffer (250 mM Tris-HCl, pH 6.8, 20% 2-mercaptoethanol, 20% SDS, 20% glycerol), followed by heating at 95° C. for 20 minutes to dissociate the low-pI TM2 from the magnetic beads.
This sample was subjected to SDS-PAGE and then western blotting analysis to determine the amount of the low-pI TM2. Anti-tamavidin 2 rabbit antibody and alkaline phosphatase-labeled anti-rabbit IgG goat antibody were used as the primary antibody and the secondary antibody, respectively. The bands were detected with Alkaline Phosphatase Substrate Kit II <VECTOR Black> (VECTRO) and were quantified with Las-3000 (FUJIFILM).

[2] = Biotin-binding test (Biacore 3000, biotin-LC-BSA immobilized)
Protocol: High-purity BSA (Sigma, 2 mg) and NHS-LC-biotin (Pierce, 1 mg) were dissolved in 50 mM sodium borate (pH 8.0, 1 mL) and were incubated at 4° C. for 2 hours. The solution was put into a dialysis tube (MWCO 6-8,000) and was dialyzed with 50 mM sodium carbonate (pH 6.7) at 4° C. overnight. The resulting biotin-LC-BSA conjugate (MW: 67 kDa, 30 μM) was used as a ligand for a Biacore (registered trademark) biosensor.
Biotin-LC-BSA and BSA serving as a negative control were immobilized on CM5 sensor chips by amine coupling method. The amount for immobilization was adjusted to about 200 RU. The chips to which BSA was immobilized were disposed in flow cells 1 and 3, while the chips to which biotin-LC-BSA was immobilized were disposed in flow cells 2 and 4.
Accordingly, seven step measurement (3.125, 6.25, […], 25, 50, 100, and 200 nM) was conducted from the lowest concentration, without recycling steps. The data of BSA as reference was deducted from the data of BSA-LC-biotin. The measurement was performed at 25° C. The resulting sensorgrams were subjected to reaction kinetics analysis using analysis software BIAevaluation ver. 4.1 with a 1:1 binding model to calculate the binding rate constant (ka) and the dissociation rate constant (kd). The dissociation constant (KD) was determined from kd/ka. In the case where no recycling step is employed, the Rmax (maximum amount of binding analyte) decreases at each measurement. Accordingly, in the analysis, the Rmax was calculated by conducting local fitting for each concentration, and only the data of analyte concentrations that were approximated to the 1:1 binding model was employed.
TM2 and HALU TM2 used as analytes were prepared by purification with 2-iminobiotin agarose in accordance with a common method and dialysis with 20MM KPi (pH 7) overnight. The analytes were each adjusted to about 50 μg/mL in 10 mM acetate buffer (pH 5, Biacore).
The immobilization of the ligand and measurement and analysis of specific interaction with the analytes were conducted as in paragraph 2-7-2).

| Molecule | non-specific binding to human serum protein compared to TM2 (human serum protein) | non-specific binding and adsorption, % of that of the wild type TM2 (human serum protein) | Non-specific binding of serum protein (%) (human serum protein) | biotin-binding ability (affinity) compared to the wild type TM2 [2] | dissociation from biotin-LC-BSA ([2]; dissociation monitored for 60 minutes) | pI observed [1] | decrease of adsorption to human serum protein compared to the wild type TM2 (human serum protein) |
| --- | --- | --- | --- | --- | --- | --- | --- |
| TM2 K33TK37AR104E: TM2 mutant, lysine 33 to threonine, lysine 37 to alanine, arginine 104 to glutamic acid; SEQ ID NO: 14 (protein, Synthetic TM2 K33TK37AR104E) MSDVQSSLTGTWYNELNSKMELTANKDGTLTGTYLSAVGDVYVPYPLSGRYNLQPPAGQGVALGWAVSWENSKIHSATTWSGQFFSESSPVILTQWLLSSSTAEGDVWESTLVGNDSFTKTAPTEQQIAHAQLHCRAPRLK |  |  |  |  |  | 5.9 to 6.0 |  |
| TM2 K19T: TM2 mutant in which lysine at position 19 is replaced with threonine; SEQ ID NO: 18 (protein, Synthetic TM2 K19T) MSDVQSSLTGTWYNELNSTMELTANKDGTLTGKYLSKVGDVYVPYPLSGRYNLQPPAGQGVALGWAVSWENSKIHSATTWSGQFFSESSPVILTQWLLSSSTARGDVWESTLVGNDSFTKTAPTEQQIAHAQLHCRAPRLK |  |  |  |  |  | 6.6 to 7.5 |  |
| TM2 K33TK37A: TM2 mutant, lysine 33 replaced with threonine and lysine 37 with alanine; SEQ ID NO: 12 (protein, Synthetic TM2 K33TK37A) MSDVQSSLTGTWYNELNSKMELTANKDGTLTGTYLSAVGDVYVPYPLSGRYNLQPPAGQGVALGWAVSWENSKIHSATTWSGQFFSESSPVILTQWLLSSSTARGDVWESTLVGNDSFTKTAPTEQQIAHAQLHCRAPRLK |  |  |  |  |  | 6.2 |  |

Further lines, with some results ahead:

| non-specific binding to human serum protein compared to TM2 (human serum protein) | non-specific binding and adsorption, % of that of the wild type TM2 (human serum protein) | Non-specific binding of serum protein (%) (human serum protein) | biotin-binding ability (affinity) compared to the wild type TM2 [2] | dissociation from biotin-LC-BSA ([2]; dissociation monitored for 60 minutes) | Molecule | pI observed [1] | decrease of adsorption to human serum protein compared to the wild type TM2 (human serum protein) |
| --- | --- | --- | --- | --- | --- | --- | --- |
| significantly low | about 60% | 68% |  |  | TM2 K26A: TM2 mutant in which lysine at position 26 was replaced with alanine; SEQ ID NO: 4 (protein, Synthetic TM2 K26A) MSDVQSSLTGTWYNELNSKMELTANADGTLTGKYLSKVGDVYVPYPLSGRYNLQPPAGQGVALGWAVSWENSKIHSATTWSGQFFSESSPVILTQWLLSSSTARGDVWESTLVGNDSFTKTAPTEQQIAHAQLHCRAPRLK | 7.3 to 7.6 | 30% |
|  |  | 90% |  |  | TM2 R104E: TM2 mutant in which arginine at position 104 was replaced with glutamic acid; SEQ ID NO: 8 (protein, Synthetic TM2 R104E) MSDVQSSLTGTWYNELNSKMELTANKDGTLTGKYLSKVGDVYVPYPLSGRYNLQPPAGQGVALGWAVSWENSKIHSATTWSGQFFSESSPVILTQWLLSSSTAEGDVWESTLVGNDSFTKTAPTEQQIAHAQLHCRAPRLK | 7.0 to 7.5 | 10% |
| significantly low | about 60% | 55% |  |  | TM2 K73Q: TM2 mutant in which lysine at position 73 was replaced with glutamine; SEQ ID NO: 6 (protein, Synthetic TM2 K73Q) MSDVQSSLTGTWYNELNSKMELTANKDGTLTGKYLSKVGDVYVPYPLSGRYNLQPPAGQGVALGWAVSWENSQIHSATTWSGQFFSESSPVILTQWLLSSSTARGDVWESTLVGNDSFTKTAPTEQQIAHAQLHCRAPRLK | 7.7 | 40% |
|  |  |  | increased; also recorded: enhanced | not dissociated | TM2 D40N: TM2 mutant in which aspartic acid at position 40 was replaced with asparagine; SEQ ID NO: 20 (protein, Synthetic TM2 D40N) MSDVQSSLTGTWYNELNSKMELTANKDGTLTGKYLSKVGNVYVPYPLSGRYNLQPPAGQGVALGWAVSWENSKIHSATTWSGQFFSESSPVILTQWLLSSSTARGDVWESTLVGNDSFTKTAPTEQQIAHAQLHCRAPRLK | 9.7 |  |
| significantly low | about 60% | 58% |  |  | TM2 K141E: TM2 mutant in which lysine at position 141 was replaced with glutamic acid; SEQ ID NO: 10 (protein, Synthetic TM2 K141E) MSDVQSSLTGTWYNELNSKMELTANKDGTLTGKYLSKVGDVYVPYPLSGRYNLQPPAGQGVALGWAVSWENSKIHSATTWSGQFFSESSPVILTQWLLSSSTARGDVWESTLVGNDSFTKTAPTEQQIAHAQLHCRAPRLE | 6.6 to 7.2 | 40% |
